Measured values published in publication PMC2064162 (The Journal of Cell Biology, 2006).

Target: Sar1p (yeast, UniProt P20606 1-190)
Assay: pull-down

Chain of Sar1p (P20606 whole entry): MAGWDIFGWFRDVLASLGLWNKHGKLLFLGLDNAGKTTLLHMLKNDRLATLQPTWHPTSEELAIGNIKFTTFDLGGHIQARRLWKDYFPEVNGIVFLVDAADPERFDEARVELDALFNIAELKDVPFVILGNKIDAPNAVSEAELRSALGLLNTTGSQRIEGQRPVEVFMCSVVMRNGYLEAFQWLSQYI

binding result: binds
Binder: MRRRSRC [GalNAcT2 cytoplasmic domain peptide (wild type, MRRRSRC)]
